Measured values published in patent US20240366756A1, “COMBINATIONS AND USES THEREOF” (Incyte Corporation, priority 2011, published 2024).
Marks after values point to notes of the source that are not given here.

Test system: RAMOS human Burkitt's lymphoma cells
Assay: Human Non-Hodgkin RAMOS tumor in SCID mice, survival model
Assay type: in vivo
Conditions: for Median Survival (Days Post-Inoculation): 3 mg/kg i.v., treatment related deaths excluded; for Survival, pairwise comparison (Holm-Sidak) vs. Group 2: Group 2 = Bendamustine (13 mg/kg); for Survival, pairwise comparison (Holm-Sidak) vs. Group 3: Group 3 = Bendamustine (16 mg/kg); for Survival, pairwise comparison (Holm-Sidak) vs. Group 5: Group 5 = MOR00208/Bendamustine (3/13 mg/kg); for Survival, pairwise comparison (Holm-Sidak) vs. Group 6: Group 6 = MOR00208/Bendamustine (3/16 mg/kg); for Survival, pairwise comparison (Holm-Sidak) vs. Group 1: Group 1 = MOR00208 (3 mg/kg)
Protocol: Cyclophosphamide (Baxter, Lot. No. 1A548C); Vehicle Control: 0.9% sodium chloride, 25 mg/ml mannitol, pH 6.5-6.8 (adjusted with 0.01 M NaOH); SCID Mice (University of Adelaide, Waite Campus, Urrbaraie, SA, Australia, Strain C.B.-17-Igh-1^b-Prkdc^scid); RAMOS human Burkitt's lymphoma cells (ATCC number CRL-1596); Ref_mAb_33_IgG_Xen (10 mg/mL in PBS, referred to as Ref_mAb_33); Bendamustine (Mundipharma, Lot No. 83889).
SCID mice were pre-treated with Cyclophosphamide (75 mg/kg, i.p., twice daily) for two days prior to RAMOS cell inoculation (Day −2 and −1). On the day of inoculation (Day 0), the mice were separated into seven groups of ten mice each, and inoculated with 1×10^6 RAMOS cells each intravenously into the tail vein. The planned dosing regimen for each group is shown in Table 5 and commenced on Day 3. The study duration was 60 days.
From the raw data shown in Table 6, both the median survival in days and median increase in lifespan were calculated. All treatment related deaths were excluded in the calculations.
Median % Increased Lifespan (ILS) is calculated as follows: […]
The classification of the MOR000208/Bendamustine combination therapy (combo) effect was evaluated by comparing the ILS of the combination with the added ILS of the respective monotherapies:
Synergy/Potentiation*: ILSCombo>ILSMOR00208 3 mg/kg+ILSBendamustine. Synergistic effects are classified as potentiation if at least one of the monotherapies has no effect. Additivity: ILSCombo=ILSMOR00208 3 mg/kg+ILSBendamustine. Antagonism: ILSCombo<ILSMOR00208 3 mg/kg+ILSBendamustine.
In addition to an analysis of the data for purposes of identifying synergy, the following statistical analysis was also completed. Statistical analyses were carried out using the median values. Any animal that died unexpectedly or was culled prior to Day 17 of the study in the Test Article treatment groups was excluded from survival analysis calculation. The death/culling of these animals was attributed to compound toxicity rather than disease progression as they occurred well in advance of the first deaths in the Vehicle Control animals. A survival curve was created using the product limit of Kaplan and Meier, and survival curves compared using the log-rank (Mantel-Cox) test. Where significant differences were found, All Pairwise Multiple Comparison (Holm-Sidak Test) was performed. Comparison was done between all groups. In addition the comparison of the following groups were summarised in separate figures for each test article: Vehicle Control/Ref_mAb (group 10) against Bendamustine groups (Groups 2, 3 and 4) and Vehicle Control/Ref_mAb (group 10) against Combination groups (Groups 5 and 6) or respective MOR00208 monotherapy group (group 1). A p value of less than 0.05 was considered significant.

[1] = Table 8, listed as Bendamustine = 13 mg/kg
[2] = Table 9, listed as combination = 3/13 mg/kg
[3] = Table 10, listed as combination = 3/16 mg/kg
[4] = untitled repeat of Table 8, listed as Bendamustine = 13 mg/kg

**Q.** How did the “Median Survival (Days Post-Inoculation)” value turn out when “MOR00208: anti-CD19 antibody; variable domains shown in FIG. 3, heavy and light chain Fc regions in FIG. 4” was run?
**A.** The value was 32^a Days Post-Inoculation.

**Q.** And the “Median % Increase in Lifespan (ILS)” value (3 mg/kg, vs. vehicle control/Ref_mAb_33)?
**A.** The value was 25.5%.

**Q.** And the “Survival, pairwise comparison (Holm-Sidak) vs. Group 2” value (from here on “Survival … (Holm-Sidak) vs. Group 2”) (Table 8)?
**A.** The value was “***Yes (***Yes: There is a statistically significant difference (p < 0.001).)”.

**Q.** What about the “Survival, pairwise comparison (Holm-Sidak) vs. Group 3” value (from here on “Survival … (Holm-Sidak) vs. Group 3”) [1] of the same molecule?
**A.** Its value is “***Yes (***Yes: There is a statistically significant difference (p < 0.001).)”.

**Q.** And the “Survival … (Holm-Sidak) vs. Group 2” value [2]?
**A.** The value was “***Yes (***Yes: There is a statistically significant difference (p < 0.001).)”.

**Q.** And the “Survival, pairwise comparison (Holm-Sidak) vs. Group 5” value (Table 9)?
**A.** Its value is “*Yes (*Yes: There is a statistically significant difference (p < 0.05).)”.

**Q.** And the “Survival … (Holm-Sidak) vs. Group 3” value [3]?
**A.** The value was “***Yes (***Yes: There is a statistically significant difference (p < 0.001).)”.

**Q.** And the “Survival, pairwise comparison (Holm-Sidak) vs. Group 6” value (Table 10)?
**A.** The value was “***Yes (***Yes: There is a statistically significant difference (p < 0.001).)”.

**Q.** What about the “Survival … (Holm-Sidak) vs. Group 2” value (untitled repeat of Table 8) of the same molecule?
**A.** The value was “***Yes (***Yes: There is a statistically significant difference (p < 0.001).)”.

**Q.** And the “Survival … (Holm-Sidak) vs. Group 3” value [4]?
**A.** Its value is “***Yes (***Yes: There is a statistically significant difference (p < 0.001).)”.

B1: RefmAb33: antibody specific for RSV, used as isotype control, shares the same Fc region as MOR00208 (SEQ ID NO: 8, 9) (antibody)
heavy: QVTLRESGPALVKPTQTLTLTCTFSGFSLSTAGMSVGWIRQPPGKALEWLADIWWDDKKHYNPSLKDRLTISKDTSKNQVVLKVTNMDPADTATYYCARDMIFNFYFDVWGQGTTVTVSSASTKGPSVFPLAPSSKSTSGGTAALGCLVKDYFPEPVTVSWNSGALTSGVHTFPAVLQSSGLYSLSSVVTVPSSSLGTQTYICNVNHKPSNTKVDKKVEPKSCDKTHTCPPCPAPELLGGPDVFLFPPKPKDTLMISRTPEVTCVVVDVSHEDPEVQFNWYVDGVEVHNAKTKPREEQFNSTFRVVSVLTVVHQDWLNGKEYKCKVSNKALPAPEEKTISKTKGQPREPQVYTLPPSREEMTKNQVSLTCLVKGFYPSDIAVEWESNGQPENNYKTTPPMLDSDGSFFLYSKLTVDKSRWQQGNVFSCSVMHEALHNHYTQKSLSLSPGK
light: DIQMTQSPSTLSASVGDRVTITCSASSRVGYMHWYQQKPGKAPKLLIYDTSKLASGVPSRFSGSGSGTEFTLTISSLQPDDFATYYCFQGSGYPFTFGGGTKVEIKRTVAAPSVFIFPPSDEQLKSGTASVVCLLNNFYPREAKVQWKVDNALQSGNSQESVTEQDSKDSTYSLSSTLTLSKADYEKHKVYACEVTHQGLSSPVTKSFNRGEC
modifications: Heavy chain RefMab33; Light chain RefMab33
**Q.** B1 was tested. Which “Median Survival (Days Post-Inoculation)” value did it give?
**A.** The value was 25.5 Days Post-Inoculation.

**Q.** And the “Survival, pairwise comparison (Holm-Sidak) vs. Group 1” value (from here on “Survival … (Holm-Sidak) vs. Group 1”) (Table 8)?
**A.** The value was “***Yes (***Yes: There is a statistically significant difference (p < 0.001).)”.

**Q.** What about the “Survival … (Holm-Sidak) vs. Group 2” value (Table 8) of the same molecule?
**A.** Its value is “*Yes (*Yes: There is a statistically significant difference (p < 0.05).)”.

**Q.** And the “Survival … (Holm-Sidak) vs. Group 3” value [1]?
**A.** The value was “No (No: There is no statistically significant difference (p ≥ 0.05).)”.

**Q.** And the “Survival … (Holm-Sidak) vs. Group 1” value (Table 9)?
**A.** Its value is “***Yes (***Yes: There is a statistically significant difference (p < 0.001).)”.

**Q.** And the “Survival … (Holm-Sidak) vs. Group 2” value [2]?
**A.** Its value is “*Yes (*Yes: There is a statistically significant difference (p < 0.05).)”.

**Q.** What about the “Survival, pairwise comparison (Holm-Sidak) vs. Group 5” value (Table 9) of the same molecule?
**A.** The value was “***Yes (***Yes: There is a statistically significant difference (p < 0.001).)”.

**Q.** And the “Survival … (Holm-Sidak) vs. Group 1” value (Table 10)?
**A.** The value was “***Yes (***Yes: There is a statistically significant difference (p < 0.001).)”.

**Q.** And the “Survival … (Holm-Sidak) vs. Group 3” value [3]?
**A.** Its value is “No (No: There is no statistically significant difference (p ≥ 0.05).)”.

**Q.** And the “Survival, pairwise comparison (Holm-Sidak) vs. Group 6” value (Table 10)?
**A.** The value was “***Yes (***Yes: There is a statistically significant difference (p < 0.001).)”.

**Q.** What about the “Survival … (Holm-Sidak) vs. Group 1” value (untitled repeat of Table 8) of the same molecule?
**A.** Its value is “***Yes (***Yes: There is a statistically significant difference (p < 0.001).)”.

**Q.** And the “Survival … (Holm-Sidak) vs. Group 2” value (untitled repeat of Table 8)?
**A.** Its value is “*Yes (*Yes: There is a statistically significant difference (p < 0.05).)”.

**Q.** And the “Survival … (Holm-Sidak) vs. Group 3” value [4]?
**A.** Its value is “No (No: There is no statistically significant difference (p ≥ 0.05).)”.
